Experimental data reported in paper PMC9239103, “System-Wide Analysis of the GATC-Binding Nucleoid-Associated Protein Gbn and Its Impact on Streptomyces Development”.

T1: Gbn (SCO1839) (Streptomyces coelicolor A3(2) M145, UniProt Q9RJ29 1-73)
T1 sequence: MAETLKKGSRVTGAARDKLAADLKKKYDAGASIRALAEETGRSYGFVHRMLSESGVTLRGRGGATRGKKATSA


Experiments:
Gbn (SCO1839) [1] = biological target: T1, Gbn (SCO1839); assay: EMSA; half-binding concentration reduced by more than one-third versus N2; 5 nM DNA; EMSA: 10 mM Tris-HCl pH 7.9, 0.1 mM EDTA, 50 mM KCl, 30 C 15 min, 5% PAGE, ethidium bromide; TPM: 10 mM Tris-HCl pH 8.0, 0.1 mM EDTA, 50 mM KCl, 0.5% acetylated BSA; conditions: protein: recombinant; tags: His6 (pET28a, pGWS1286; printed as both His6-Gbn and Gbn-His6); blunt
Gbn (SCO1839) [2] = biological target: T1, Gbn (SCO1839); assay: EMSA; three binding events seen for four motifs; 7.5 nM DNA; EMSA: 10 mM Tris-HCl pH 7.9, 0.1 mM EDTA, 50 mM KCl, 30 C 15 min, 5% PAGE, ethidium bromide; TPM: 10 mM Tris-HCl pH 8.0, 0.1 mM EDTA, 50 mM KCl, 0.5% acetylated BSA; conditions: protein: recombinant; tags: His6 (pET28a, pGWS1286; printed as both His6-Gbn and Gbn-His6); blunt

Binder | binding result (Gbn (SCO1839) [1]) | binding result (Gbn (SCO1839) [2])
p1839_50Single_strong (++, GATCWT) (dsDNA) DNA 1: CTCGACGCCGTCCGGAAGCAGAATGATCCGTTCCGGCTGGAGCGCCTCGA DNA 2: TCGAGGCGCTCCAGCCGGAACGGATCATTCTGCTTCCGGACGGCGTCGAG | binds | 
p1839_50Quadruple (dsDNA) DNA 1: GATGGCGGATCACGGATCGGCCGAATGATCCATAACCAGTGGATCATCCA DNA 2: TGGATGATCCACTGGTTATGGATCATTCGGCCGATCCGTGATCCGCCATC |  | binds
